The values that follow come from paper PMC2651776 (Nucleic Acids Research, 2009).

For data set [1], the target named is T1, MepR (Staphylococcus aureus, UniProt Q5Y812).
T1 sequence (Q5Y812 1-139): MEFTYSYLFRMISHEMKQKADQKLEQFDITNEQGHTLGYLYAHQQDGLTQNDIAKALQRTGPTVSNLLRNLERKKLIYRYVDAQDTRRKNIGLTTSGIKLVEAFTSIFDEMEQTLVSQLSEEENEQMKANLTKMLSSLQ
It is filed as binding.

For data set [2], the target named is MepR (Staphylococcus aureus, UniProt A0A0H3JPT9 1-139). The data set is described as follows: fluorescence polarization. For orientation: In fluorescence polarisation assays a small probe gives low polarisation when free and higher when bound to something large.
The data set “SEC” deals with the molecule itself. The data set is described as follows: SEC. For orientation: SEC sorts molecules by how far they enter the pores of the column.

`CC[n+]1c(-c2ccccc2)c2cc(N)ccc2c2ccc(N)cc21` [ethidium] came in with a Kd at MepR [1] of 2600 nM.
Molecule `N=C(N)c1ccc(-c2cc3ccc(C(=N)N)cc3[nH]2)cc1` [DAPI, 4′,6-diamidino-2-phenylindole] had a dissociation constant Kd on MepR [1] of 4500 nM.
Regarding `CC/N=c1\cc2oc3cc(NCC)c(C)cc3c(-c3ccccc3C(=O)OCC)c-2cc1C` [rhodamine 6G], the dissociation constant (Kd) on MepR [1] was determined as 62600 nM.

B1: mepA 44 bp full site (dsDNA)
DNA 1: TTATAGTTAGATATCTAATTGTTAGTAAGCTAATTATTGGAAAA
DNA 2: TTTTCCAATAATTAGCTTACTAACAATTAGATATCTAACTATAA
Molecule B1 had an equilibrium dissociation constant (Kd) in the data set with MepR [2] of 6.3 nM.

B2: mepA 22 bp (3'-truncated) (dsDNA)
DNA 1: TTATAGTTAGATATCTAATTGT
DNA 2: ACAATTAGATATCTAACTATAA
As to B2, the Kd with MepR [2] was 46.4 nM.

B3: MepR (natural protein, Staphylococcus aureus)
chain: MEFTYSYLFRMISHEMKQKADQKLEQFDITNEQGHTLGYLYAHQQDGLTQNDIAKALQRTGPTVSNLLRNLERKKLIYRYVDAQDTRRKNIGLTTSGIKLVEAFTSIFDEMEQTLVSQLSEEENEQMKANLTKMLSSLQ
Turning to B3, in “SEC”, the “stoichiometry N” value was 2.

B4: mepA 26 bp (3'-truncated) (dsDNA)
DNA 1: TTATAGTTAGATATCTAATTGTTAGT
DNA 2: ACTAACAATTAGATATCTAACTATAA
With B4, the dissociation constant Kd in the data set with MepR [2] turned out to be 15.3 nM.

B5: mepR 26 bp site (dsDNA)
DNA 1: TATTTAGTTAGACATCTAACGAATGG
DNA 2: CCATTCGTTAGATGTCTAACTAAATA
Take B5: in the data set with MepR [2], the Kd was 24.3 nM.

As a reminder, the Kd is the concentration at which binding is half-saturated. A lower Kd goes with tighter binding. As usually defined, the stoichiometry N is the number of molecules, sites or subunits per partner or assembly.
